Source: patent US20230009582A1 (MEMO THERAPEUTICS, published 2023)

Target: T1, Siglec-5-Fc (R&D systems) (UniProt O15389 17-434, limits assumed)
T1 construct: Bought reagent; not shown: Fc part of the bought fusion; not described
T1 sequence (looked up): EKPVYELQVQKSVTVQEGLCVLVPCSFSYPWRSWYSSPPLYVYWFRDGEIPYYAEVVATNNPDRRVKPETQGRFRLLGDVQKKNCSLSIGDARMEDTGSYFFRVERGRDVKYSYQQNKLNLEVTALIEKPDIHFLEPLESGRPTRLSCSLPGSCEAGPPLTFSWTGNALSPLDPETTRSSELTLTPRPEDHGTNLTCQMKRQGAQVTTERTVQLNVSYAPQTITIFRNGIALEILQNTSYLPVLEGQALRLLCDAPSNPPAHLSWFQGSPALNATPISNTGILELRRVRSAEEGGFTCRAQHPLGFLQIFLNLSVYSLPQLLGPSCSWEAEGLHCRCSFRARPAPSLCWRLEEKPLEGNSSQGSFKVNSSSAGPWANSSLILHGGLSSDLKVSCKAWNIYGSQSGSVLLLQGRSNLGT
Assay: ELISA, coated Siglec-5-Fc 1 µg/ml, single antibody concentration, Abs 450 nm, n=3
Protocol: Specificity towards Siglec-5, Siglec-7, Siglec-8, Siglec-15 and Siglec-9 was assayed in enzyme-linked immunosorbent assay (ELISA) using 96 well half-area ELISA plates (Corning). Siglec-5-Fc (R&D systems), Siglec-7-Fc (in-house production, Siglec-7-Fc protein used had the following amino acid sequence:
(SEQ ID NO: 59)) […] […] […] […] […] […] […] […] […] […] […] […], Siglec-8-Fc (R&D systems), Siglec-15- Fc (R&D systems) and Siglec-9-Fc (in-house production, SEQ ID NO: 11) were coated at 1 μg/ml in 50 mM carbonate-bicarbonate buffer pH 9.6 for 15-20 hours at 4° C.
Antigens were washed away (Tecan Hydrospeed) and plates were blocked with 5% skimmed milk in phosphate-buffered saline (PBS). After washing the plates, antibodies were added at 5 μg/ml (33 nM) in 0.5% milk PBS in triplicates. Plates with antibodies were incubated for 1 hour at room temperature. Plates were washed and bound antibodies were detected by horseradish peroxidase (HRP)-labeled polyclonal anti-rabbit IgG antibody (Biolegend) or anti-human Fab fragment for mAbA (Sigma Aldrich). 3,3′,5,5′-Tetramethylbenzidine (TMB; Sigma Aldrich) development was stopped by addition of sulfuric acid and absorbance was detected at 450 nm (Tecan, CM […] MONO 200).

B1: monoclonal antibody 224B1 (rabbit) (antibody, V domains shown)
VH: QSVEESGGRLVTPETPLTLTCTASGFSLSSYYMSWVRQAPGKGLEWIGYIWTDGSAHYATWTKGRFTISKTSSTTVDLKITSPTTEDTATYFCVRANSGSHTYIEKFNLWGPGTLVTVSS
VL: DVVMTQTPASVEATVGGSVTIKCQASPSINDELSWYQQKPGQRPTLLIYEASALESGVPSRFKGSGSGTEFTLTIGDLECADAATYYCQCTYGSRSDISYGNTFGGGTEVVVKG
B1: no binding (tested: 5 µg/ml).
